Biological target: T1, Syndecan-1
T1 sequence (P18827 whole entry, species assumed, looked up): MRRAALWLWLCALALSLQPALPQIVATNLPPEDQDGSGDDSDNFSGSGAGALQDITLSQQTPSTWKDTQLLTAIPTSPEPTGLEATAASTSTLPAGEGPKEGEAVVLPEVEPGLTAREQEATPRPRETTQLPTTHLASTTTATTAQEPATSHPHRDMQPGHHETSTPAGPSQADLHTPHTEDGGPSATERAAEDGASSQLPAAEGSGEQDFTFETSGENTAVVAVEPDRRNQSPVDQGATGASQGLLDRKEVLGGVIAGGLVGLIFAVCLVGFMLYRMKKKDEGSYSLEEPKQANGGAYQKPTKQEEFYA

minimal therapeutic concentration (β-hexosaminidase secretion, rabbit LGACs): 10 µM
B1: lacritin (free lacritin released from Lac-ELP by thrombin cleavage) (ligand)
chain: MEDASSDSTGADPAQEAGTSKPNEEISGPAEPASPPETTTTAQETSAAAVQGTAKVTSSRQELNPLKSIVEKSILLTEQALAKAGKGMHGGVPGGKQFIENGSEFAQKLLKKFSLLKPWAGLVPR

Reference: patent publication US9102763B2
